Data reported in PMC9800579, “Interplay of membrane crosslinking and curvature induction by annexins” (Scientific Reports, 2022).

Target: the molecule itself
Assay: atomic force microscopy; alternating contact mode on DOPC/DOPS (1:1) supported lipid bilayers on mica, 10 mM TRIS pH 7.4, 140 mM NaCl, 2 mM Ca2+; 40 nM ANXA4 added with 40 nM ANXA1-GFP or ANXA2-GFP; 250 nm x 250 nm scans of the lower (ANXA4) domains, Fourier transform

B1: annexin A4 (natural protein, UniProt P09525 1-319, looked up)
chain: MATKGGTVKAASGFNAMEDAQTLRKAMKGLGTDEDAIISVLAYRNTAQRQEIRTAYKSTIGRDLIDDLKSELSGNFEQVIVGMMTPTVLYDVQELRRAMKGAGTDEGCLIEILASRTPEEIRRISQTYQQQYGRSLEDDIRSDTSFMFQRVLVSLSAGGRDEGNYLDDALVRQDAQDLYEAGEKKWGTDEVKFLTVLCSRNRNHLLHVFDEYKRISQKDIEQSIKSETSGSFEDALLAIVKCMRNKSAYFAEKLYKSMKGLGTDDNTLIRVMVSRAEIDMLDIRAHFKRLYGKSLYSFIKGDTSGDYRKVLLVLCGGDD
notes: annexin A4 (ANXA4), unlabelled recombinant protein from a PCR-amplified cDNA in pETM11-SUMO3; the introduction gives 320 amino acids for ANXA4 (cited); also called ANXA4; recombinant ANXA4; source: E. coli BL21 (DE3), purified (Ni-NTA IMAC, Superdex 200 SEC); not shown: 6xHis, N-terminal, cleaved; SUMO3 domain, N-terminal, cleaved
stoichiometry N: 3
